From publication PMC9482650, “Quantitative fragmentomics allow affinity mapping of interactomes” (Nature Communications, 2022)

What follows are binders tested against T1, DLG3_2, Q92796 (assay: holdup assay). Conditions: plain residues with an end cap or a label only (N-terminal biotin on a linker: ado-ado).
T1 sequence (Q92796 221-321, limits assumed, looked up): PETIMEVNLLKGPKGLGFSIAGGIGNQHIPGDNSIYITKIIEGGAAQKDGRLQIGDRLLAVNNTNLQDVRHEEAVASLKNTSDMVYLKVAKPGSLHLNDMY
Design: key: below the threshold = too weak to quantify, mostly under pKd 3.1 to 4

Row | Binder | pKd
1 | GTGYDRKDYV [CLDN3, O15551] | below the threshold

Each binder was assayed against Inadl_3, Q8NI35 (assay: holdup assay). Conditions: plain residues with an end cap or a label only (N-terminal biotin on a linker: ado-ado).
Design: key: below the threshold = too weak to quantify, mostly under pKd 3.1 to 4

Chain of Inadl_3, Q8NI35 (Q8NI35 359-469): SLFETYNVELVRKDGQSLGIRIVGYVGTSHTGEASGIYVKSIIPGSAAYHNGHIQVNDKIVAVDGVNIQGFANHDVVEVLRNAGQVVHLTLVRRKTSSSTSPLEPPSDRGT

Row | Binder | pKd
2 | GTGYDRKDYV [CLDN3, O15551] | below the threshold

The binders below were run against Inadl_5, Q8NI35 (assay: holdup assay). Conditions: plain residues with an end cap or a label only (N-terminal biotin on a linker: ado-ado).
Design: key: below the threshold = too weak to quantify, mostly under pKd 3.1 to 4

Chain of Inadl_5, Q8NI35 (Q8NI35 673-780): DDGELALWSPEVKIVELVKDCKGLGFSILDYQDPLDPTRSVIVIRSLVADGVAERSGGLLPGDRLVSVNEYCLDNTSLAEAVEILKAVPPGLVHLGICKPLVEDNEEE

Row | Binder | pKd
3 | GTGYDRKDYV [CLDN3, O15551] | 3.49

Each binder was assayed against T2, PDZRN3_1, Q9UPQ7 (assay: holdup assay). Conditions: plain residues with an end cap or a label only (N-terminal biotin on a linker: ado-ado).
T2 sequence (Q9UPQ7 244-349, limits assumed, looked up): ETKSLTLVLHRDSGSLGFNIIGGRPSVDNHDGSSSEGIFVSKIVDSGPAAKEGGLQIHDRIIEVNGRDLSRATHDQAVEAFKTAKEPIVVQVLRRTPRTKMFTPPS
Design: key: below the threshold = too weak to quantify, mostly under pKd 3.1 to 4

Row | Binder | pKd
4 | GTGYDRKDYV [CLDN3, O15551] | below the threshold

What follows are binders tested against LDB3, O75112 (assay: holdup assay). Conditions: plain residues with an end cap or a label only (N-terminal biotin on a linker: ado-ado).
Design: key: below the threshold = too weak to quantify, mostly under pKd 3.1 to 4

Chain of LDB3, O75112 (O75112 1-94): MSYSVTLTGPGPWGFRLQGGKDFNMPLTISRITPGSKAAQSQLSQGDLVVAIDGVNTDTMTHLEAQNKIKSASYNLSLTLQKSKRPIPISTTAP

Row | Binder | pKd
5 | GTGYDRKDYV [CLDN3, O15551] | below the threshold

What follows are binders tested against T3, LIN7B, Q9HAP6 (assay: holdup assay). Conditions: plain residues with an end cap or a label only (N-terminal biotin on a linker: ado-ado).
T3 sequence (Q9HAP6 88-185, limits assumed, looked up): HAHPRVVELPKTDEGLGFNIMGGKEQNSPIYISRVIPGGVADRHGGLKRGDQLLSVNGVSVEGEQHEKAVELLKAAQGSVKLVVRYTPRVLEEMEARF
Design: key: below the threshold = too weak to quantify, mostly under pKd 3.1 to 4

Row | Binder | pKd
6 | GTGYDRKDYV [CLDN3, O15551] | below the threshold

What follows are binders tested against T4, DLG3_1, Q92796 (assay: holdup assay). Conditions: plain residues with an end cap or a label only (N-terminal biotin on a linker: ado-ado).
T4 sequence (Q92796 125-227, limits assumed, looked up): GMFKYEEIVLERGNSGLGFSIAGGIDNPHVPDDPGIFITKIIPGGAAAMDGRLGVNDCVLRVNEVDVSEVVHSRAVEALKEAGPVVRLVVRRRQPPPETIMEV
Design: key: below the threshold = too weak to quantify, mostly under pKd 3.1 to 4

Row | Binder | pKd
7 | GTGYDRKDYV [CLDN3, O15551] | below the threshold

Each binder was assayed against DLG1_3, Q12959 (assay: holdup assay). Conditions: plain residues with an end cap or a label only (N-terminal biotin on a linker: ado-ado).
Design: key: below the threshold = too weak to quantify, mostly under pKd 3.1 to 4

Chain of DLG1_3, Q12959 (Q12959 457-571): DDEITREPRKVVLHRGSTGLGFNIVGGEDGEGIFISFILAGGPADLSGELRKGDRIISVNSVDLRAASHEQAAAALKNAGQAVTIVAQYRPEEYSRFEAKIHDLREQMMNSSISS

Row | Binder | pKd
8 | GTGYDRKDYV [CLDN3, O15551] | 3.67

What follows are binders tested against NHERF4_2, Q86UT5 (assay: holdup assay). Conditions: plain residues with an end cap or a label only (N-terminal biotin on a linker: ado-ado).
Design: key: below the threshold = too weak to quantify, mostly under pKd 3.1 to 4

Chain of NHERF4_2, Q86UT5 (Q86UT5 220-308): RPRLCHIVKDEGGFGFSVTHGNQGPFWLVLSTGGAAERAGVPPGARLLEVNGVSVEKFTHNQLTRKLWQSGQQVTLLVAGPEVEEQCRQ

Row | Binder | pKd
9 | GTGYDRKDYV [CLDN3, O15551] | below the threshold

Each binder was assayed against T5, SIPA1L2, Q9P2F8 (assay: holdup assay). Conditions: plain residues with an end cap or a label only (N-terminal biotin on a linker: ado-ado).
T5 sequence (Q9P2F8 945-1036, limits assumed, looked up): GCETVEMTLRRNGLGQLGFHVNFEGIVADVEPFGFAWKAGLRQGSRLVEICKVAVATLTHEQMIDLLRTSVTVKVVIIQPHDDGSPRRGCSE
Design: key: below the threshold = too weak to quantify, mostly under pKd 3.1 to 4

Row | Binder | pKd
10 | GTGYDRKDYV [CLDN3, O15551] | below the threshold

What follows are binders tested against SCRIB_1, Q14160 (assay: holdup assay). Conditions: plain residues with an end cap or a label only (N-terminal biotin on a linker: ado-ado).
Design: key: below the threshold = too weak to quantify, mostly under pKd 3.1 to 4

Chain of SCRIB_1, Q14160 (Q14160 718-814): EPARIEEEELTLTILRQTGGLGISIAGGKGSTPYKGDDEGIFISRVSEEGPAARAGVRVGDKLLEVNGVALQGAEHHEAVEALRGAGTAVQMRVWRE

Row | Binder | pKd
11 | GTGYDRKDYV [CLDN3, O15551] | below the threshold

These binders were tested against T6, NHERF3_3, Q5T2W1 (assay: holdup assay). Conditions: plain residues with an end cap or a label only (N-terminal biotin on a linker: ado-ado).
T6 sequence (Q5T2W1 238-333, limits assumed, looked up): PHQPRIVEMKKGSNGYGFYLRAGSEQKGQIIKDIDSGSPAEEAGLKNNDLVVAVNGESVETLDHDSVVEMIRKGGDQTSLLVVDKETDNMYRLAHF
Design: key: below the threshold = too weak to quantify, mostly under pKd 3.1 to 4

Row | Binder | pKd
12 | GTGYDRKDYV [CLDN3, O15551] | below the threshold

The binders below were run against GRID2IP_1, A4D2P6 (assay: holdup assay). Conditions: plain residues with an end cap or a label only (N-terminal biotin on a linker: ado-ado).
Design: key: below the threshold = too weak to quantify, mostly under pKd 3.1 to 4

Chain of GRID2IP_1, A4D2P6 (A4D2P6 1-87): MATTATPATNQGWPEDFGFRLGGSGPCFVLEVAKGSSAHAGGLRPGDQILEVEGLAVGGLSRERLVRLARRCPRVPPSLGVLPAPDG

Row | Binder | pKd
13 | GTGYDRKDYV [CLDN3, O15551] | below the threshold

These binders were tested against T7, DFNB31_1, Q9P202 (assay: holdup assay). Conditions: plain residues with an end cap or a label only (N-terminal biotin on a linker: ado-ado).
T7 sequence (Q9P202 135-233, limits assumed, looked up): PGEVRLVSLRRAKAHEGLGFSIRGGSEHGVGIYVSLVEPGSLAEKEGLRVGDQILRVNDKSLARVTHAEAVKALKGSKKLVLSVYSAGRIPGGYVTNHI
Design: key: below the threshold = too weak to quantify, mostly under pKd 3.1 to 4

Row | Binder | pKd
14 | GTGYDRKDYV [CLDN3, O15551] | below the threshold

These binders were tested against TJP1_3, Q07157 (assay: holdup assay). Conditions: plain residues with an end cap or a label only (N-terminal biotin on a linker: ado-ado).
Design: key: below the threshold = too weak to quantify, mostly under pKd 3.1 to 4

Chain of TJP1_3, Q07157 (Q07157 416-512): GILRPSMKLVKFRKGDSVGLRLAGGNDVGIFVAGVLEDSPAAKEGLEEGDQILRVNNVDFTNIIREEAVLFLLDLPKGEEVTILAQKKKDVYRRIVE

Row | Binder | pKd
15 | GTGYDRKDYV [CLDN3, O15551] | 3.54

The binders below were run against T8, MPDZ_10, O75970 (assay: holdup assay). Conditions: plain residues with an end cap or a label only (N-terminal biotin on a linker: ado-ado).
T8 sequence (O75970 1624-1722, limits assumed, looked up): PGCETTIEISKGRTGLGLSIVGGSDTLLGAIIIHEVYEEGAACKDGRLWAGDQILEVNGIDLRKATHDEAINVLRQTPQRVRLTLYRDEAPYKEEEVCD
Design: key: below the threshold = too weak to quantify, mostly under pKd 3.1 to 4

Row | Binder | pKd
16 | GTGYDRKDYV [CLDN3, O15551] | 3.51

Each binder was assayed against FRMPD2_3, Q68DX3 (assay: holdup assay). Conditions: plain residues with an end cap or a label only (N-terminal biotin on a linker: ado-ado).
Design: key: below the threshold = too weak to quantify, mostly under pKd 3.1 to 4

Chain of FRMPD2_3, Q68DX3 (Q68DX3 1073-1166): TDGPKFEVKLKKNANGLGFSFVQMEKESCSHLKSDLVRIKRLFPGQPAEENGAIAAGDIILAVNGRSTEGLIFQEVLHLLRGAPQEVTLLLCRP

Row | Binder | pKd
17 | GTGYDRKDYV [CLDN3, O15551] | below the threshold

Each binder was assayed against T9, MPDZ_5, O75970 (assay: holdup assay). Conditions: plain residues with an end cap or a label only (N-terminal biotin on a linker: ado-ado).
T9 sequence (O75970 695-796, limits assumed, looked up): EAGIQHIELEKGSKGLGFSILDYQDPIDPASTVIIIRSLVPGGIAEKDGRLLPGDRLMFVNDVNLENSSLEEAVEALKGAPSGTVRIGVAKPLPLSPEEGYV
Design: key: below the threshold = too weak to quantify, mostly under pKd 3.1 to 4

Row | Binder | pKd
18 | GTGYDRKDYV [CLDN3, O15551] | below the threshold

The binders below were run against AHNAK1, Q09666 (assay: holdup assay). Conditions: plain residues with an end cap or a label only (N-terminal biotin on a linker: ado-ado).
Design: key: below the threshold = too weak to quantify, mostly under pKd 3.1 to 4

Chain of AHNAK1, Q09666 (Q09666 4-100): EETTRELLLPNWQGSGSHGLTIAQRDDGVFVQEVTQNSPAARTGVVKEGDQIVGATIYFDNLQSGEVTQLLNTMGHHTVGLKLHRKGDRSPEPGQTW

Row | Binder | pKd
19 | GTGYDRKDYV [CLDN3, O15551] | below the threshold

These binders were tested against T10, MPDZ_12, O75970 (assay: holdup assay). Conditions: plain residues with an end cap or a label only (N-terminal biotin on a linker: ado-ado).
T10 sequence (O75970 1857-1958, limits assumed, looked up): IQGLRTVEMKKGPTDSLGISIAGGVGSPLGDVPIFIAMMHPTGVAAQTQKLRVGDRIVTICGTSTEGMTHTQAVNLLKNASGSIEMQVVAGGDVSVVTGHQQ
Design: key: below the threshold = too weak to quantify, mostly under pKd 3.1 to 4

Row | Binder | pKd
20 | GTGYDRKDYV [CLDN3, O15551] | below the threshold

These binders were tested against NHERF4_4, Q86UT5 (assay: holdup assay). Conditions: plain residues with an end cap or a label only (N-terminal biotin on a linker: ado-ado).
Design: key: below the threshold = too weak to quantify, mostly under pKd 3.1 to 4

Chain of NHERF4_4, Q86UT5 (Q86UT5 464-550): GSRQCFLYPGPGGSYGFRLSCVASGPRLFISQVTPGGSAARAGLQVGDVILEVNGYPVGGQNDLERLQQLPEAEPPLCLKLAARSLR

Row | Binder | pKd
21 | GTGYDRKDYV [CLDN3, O15551] | below the threshold

Each binder was assayed against T11, SNTG2, Q9NY99 (assay: holdup assay). Conditions: plain residues with an end cap or a label only (N-terminal biotin on a linker: ado-ado).
T11 sequence (Q9NY99 68-166, limits assumed, looked up): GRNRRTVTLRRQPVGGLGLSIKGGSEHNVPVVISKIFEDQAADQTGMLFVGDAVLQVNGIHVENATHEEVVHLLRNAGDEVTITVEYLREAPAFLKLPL
Design: key: below the threshold = too weak to quantify, mostly under pKd 3.1 to 4

Row | Binder | pKd
22 | GTGYDRKDYV [CLDN3, O15551] | below the threshold

What follows are binders tested against SNX27, Q96L92 (assay: holdup assay). Conditions: plain residues with an end cap or a label only (N-terminal biotin on a linker: ado-ado).
Design: key: below the threshold = too weak to quantify, mostly under pKd 3.1 to 4

Row | Binder | pKd
23 | GTGYDRKDYV [CLDN3, O15551] | 3.68

These binders were tested against T12, RAPGEF6, Q8TEU7 (assay: holdup assay). Conditions: plain residues with an end cap or a label only (N-terminal biotin on a linker: ado-ado).
T12 sequence (Q8TEU7 525-625, limits assumed, looked up): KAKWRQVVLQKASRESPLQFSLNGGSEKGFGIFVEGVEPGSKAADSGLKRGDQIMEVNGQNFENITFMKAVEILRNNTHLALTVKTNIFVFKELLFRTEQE
Design: key: below the threshold = too weak to quantify, mostly under pKd 3.1 to 4

Row | Binder | pKd
24 | GTGYDRKDYV [CLDN3, O15551] | below the threshold
